Measured values from patent US20190359687A1 (Bayer, published 2019).

Legend:
[1] = molecular target: T1, purified human glycophorin A protein (Sigma, cat # G5017) (human, UniProt P02724 20-150); assay: ELISA, native hGPA
T1 construct: mature; also called Sigma hGPA; Sigma GPA
T1 sequence (looked up): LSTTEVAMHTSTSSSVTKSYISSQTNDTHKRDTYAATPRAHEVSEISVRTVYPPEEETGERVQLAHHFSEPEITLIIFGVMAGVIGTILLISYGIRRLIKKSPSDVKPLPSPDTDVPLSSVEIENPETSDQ

[2] = molecular target: T2, human glycophorin A in the red blood cell membrane (human, UniProt P02724 20-150); assay: ELISA, human RBC membranes;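 further: antibodies bound to isolated human red blood cell membrane ghosts coated on 96-well plates, tested 1.5 h at room temperature, bound antibody quantified with a detection antibody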
T2 construct: whole, on cells; used for intact RBC, isolated RBC membranes and transfected cells; the assay field tells which; also called GPA; hGPA
T2 sequence (looked up): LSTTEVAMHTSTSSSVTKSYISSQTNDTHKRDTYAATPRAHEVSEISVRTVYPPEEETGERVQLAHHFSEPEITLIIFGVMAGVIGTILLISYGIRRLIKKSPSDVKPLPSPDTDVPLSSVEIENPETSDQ
Description: In order to evaluate binding of antibodies to GPA in the native context of the red blood cell membrane we made use of isolated red blood cell membranes, also called red blood cells ghosts. These membranes are prepared by first isolating red blood cells from citrated whole blood. Citrated whole blood is layered on to Ficol and centrifuged at low speed for 20 minutes to pellet the red blood cells. The supernatant containing plasma and other blood cells is discarded and the red blood cell pellet is subsequently washed 3 times in 10 cell volumes of phosphate buffered saline (PBS). A 10 ml pellet of purified red blood cells is resuspended in 30 ml of cold low osmorality 20 mM phosphate buffer (pH7.4) and incubated for 30 mins to break open the RBC. After Centrifugation at 10,000 rpm for 30 min at 5° C. the hemoglobin containing supernatant is discarded. To the membrane pellet another 30 ml of 20 mM phosphate buffer is added and the sample centrifuged again at 10,000 rpm for 30 min at 5° C. to pellet the membrane fraction. This wash and centrifugation step is repeated another 4 times. The red blood cell membranes are then resuspended in 20 mL of PBS to achieve an equivalent of approximately 2.5E9 cells/mL and stored frozen at −20° C. Binding of antibodies to RBC ghost can be measured by ELISA in which the RBC ghost suspension (5×10⁶ in 100 ul PBS) was added to each well of flat bottom 96-well ELISA microtiter plates (2HB, Immunolon) and the plates incubated overnight at 4° C. The plates were blocked with Starting blocking buffer (Thermo Fisher) for 2 hours at room temperature (RT). Antibodies or other test molecules were added to each well and incubated for 1.5 hours at RT. After 4 washes 100 ul of an appropriate detection antibody was added to each well and incubated for 1 hour at RT. After 4 washes the detection antibody was measured using appropriate detection reagents.

[3] = molecular target: T3, recombinant human GPA ectodomain (human, UniProt P02724 20-91); assay: ELISA, rec hGPA ectodomain
T3 construct: also called recombinant hGPA ECD; recGPA
T3 sequence: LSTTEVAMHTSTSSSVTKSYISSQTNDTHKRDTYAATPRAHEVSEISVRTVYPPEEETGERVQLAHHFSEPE

B1: TPP-5316 (Fab, V domains shown)
VH: QVQLVQSGAEVKKPGASVKVSCKASGYTFTTYTIHWVRQAPGQGLEWIGYINPSSDYTRYNPKFKDRVTLTTDKSTSTAYMELRSLRSDDTAVYYCQTGTRDYWGQGTTVTVSS
VL: DIQLTQSPSFLSASVGDRVTITCSAASSVSYIYWFQQKPGKAPKLLIYSTSTLPSGVPSRFSGSGSGTEYTLTISSLQPEDFATYYCHQRNSFPFTFGQGTKLEIKR
notes: also called VH: (E1Q)
binding by ELISA relative to parental [1]: 1.33
binding by ELISA relative to parental [2]: 1.16
binding by ELISA relative to parental [3]: 1.29

B2: TPP-5327 (Fab, V domains shown)
VH: EVQLVQSGAEVKKPGASVKVSCKASGYTFTTYTIHWVRQAPGQGLEWIGYINPSSDYTRYNQKFKDRVTLTTDKSTSTAYMELRSLRSDDTAVYYCQTGTRDYWGQGTTVTVSS
VL: DIQLTQSPSFLSASVGDRVTITCSAASSVSYIYWFQQKPGKAPKLLIYSTSTLPSGVPSRFSGSGSGTEYTLTISSLQPEDFATYYCHQRNSFPFTFGQGTKLEIKR
notes: also called VH: (P62Q)
binding by ELISA relative to parental [1]: 0.98
binding by ELISA relative to parental [2]: 0.74
binding by ELISA relative to parental [3]: 0.99

B3: TPP-5331 (Fab, V domains shown)
VH: EVQLVQSGAEVKKPGASVKVSCKASGYTFTTYTIHWVRQAPGQGLEWIGYINPSSDYTRYNPKFKDRVTLTRDKSTSTAYMELRSLRSDDTAVYYCQTGTRDYWGQGTTVTVSS
VL: DIQLTQSPSFLSASVGDRVTITCSAASSVSYIYWFQQKPGKAPKLLIYSTSTLPSGVPSRFSGSGSGTEYTLTISSLQPEDFATYYCHQRNSFPFTFGQGTKLEIKR
notes: also called VH: (T72R)
binding by ELISA relative to parental [1]: 1.11
binding by ELISA relative to parental [2]: 0.96
binding by ELISA relative to parental [3]: 1.07

B4: TPP-5320 (Fab, V domains shown)
VH: EVQLVQSGAEVKKPGASVKVSCKASGYTFTTYTIHWVRQAPGQGLEWMGYINPSSDYTRYNPKFKDRVTLTTDKSTSTAYMELRSLRSDDTAVYYCQTGTRDYWGQGTTVTVSS
VL: DIQLTQSPSFLSASVGDRVTITCSAASSVSYIYWFQQKPGKAPKLLIYSTSTLPSGVPSRFSGSGSGTEYTLTISSLQPEDFATYYCHQRNSFPFTFGQGTKLEIKR
notes: also called VH: (I48M)
binding by ELISA relative to parental [1]: 1.24
binding by ELISA relative to parental [2]: 0.99
binding by ELISA relative to parental [3]: 1.35

B5: TPP-5330 (Fab, V domains shown)
VH: EVQLVQSGAEVKKPGASVKVSCKASGYTFTTYTIHWVRQAPGQGLEWIGYINPSSDYTRYNPKFKDRVTMTTDKSTSTAYMELRSLRSDDTAVYYCQTGTRDYWGQGTTVTVSS
VL: DIQLTQSPSFLSASVGDRVTITCSAASSVSYIYWFQQKPGKAPKLLIYSTSTLPSGVPSRFSGSGSGTEYTLTISSLQPEDFATYYCHQRNSFPFTFGQGTKLEIKR
notes: also called VH: (L70M)
binding by ELISA relative to parental [1]: 1.2
binding by ELISA relative to parental [2]: 0.91
binding by ELISA relative to parental [3]: 1.29

B6: TPP-5326 (Fab, V domains shown)
VH: EVQLVQSGAEVKKPGASVKVSCKASGYTFTTYTIHWVRQAPGQGLEWIGYINPSSDYTRYAPKFKDRVTLTTDKSTSTAYMELRSLRSDDTAVYYCQTGTRDYWGQGTTVTVSS
VL: DIQLTQSPSFLSASVGDRVTITCSAASSVSYIYWFQQKPGKAPKLLIYSTSTLPSGVPSRFSGSGSGTEYTLTISSLQPEDFATYYCHQRNSFPFTFGQGTKLEIKR
notes: also called VH: (N61A)
binding by ELISA relative to parental [1]: 0.56
binding by ELISA relative to parental [2]: 0.45
binding by ELISA relative to parental [3]: 0.53

B7: TPP-5317 (Fab, V domains shown)
VH: EVQLVQSGAEVKKPGASVKVSCKASGYTFTSYTIHWVRQAPGQGLEWIGYINPSSDYTRYNPKFKDRVTLTTDKSTSTAYMELRSLRSDDTAVYYCQTGTRDYWGQGTTVTVSS
VL: DIQLTQSPSFLSASVGDRVTITCSAASSVSYIYWFQQKPGKAPKLLIYSTSTLPSGVPSRFSGSGSGTEYTLTISSLQPEDFATYYCHQRNSFPFTFGQGTKLEIKR
notes: also called VH: (T31S)
binding by ELISA relative to parental [1]: 1.36
binding by ELISA relative to parental [2]: 0.68
binding by ELISA relative to parental [3]: 1.34

B8: TPP-5329 (Fab, V domains shown)
VH: EVQLVQSGAEVKKPGASVKVSCKASGYTFTTYTIHWVRQAPGQGLEWIGYINPSSDYTRYNPKFKGRVTLTTDKSTSTAYMELRSLRSDDTAVYYCQTGTRDYWGQGTTVTVSS
VL: DIQLTQSPSFLSASVGDRVTITCSAASSVSYIYWFQQKPGKAPKLLIYSTSTLPSGVPSRFSGSGSGTEYTLTISSLQPEDFATYYCHQRNSFPFTFGQGTKLEIKR
notes: also called VH: (D66G)
binding by ELISA relative to parental [1]: 1.02
binding by ELISA relative to parental [2]: 1
binding by ELISA relative to parental [3]: 1.12

B9: TPP-5323 (Fab, V domains shown)
VH: EVQLVQSGAEVKKPGASVKVSCKASGYTFTTYTIHWVRQAPGQGLEWIGYINPSSGYTRYNPKFKDRVTLTTDKSTSTAYMELRSLRSDDTAVYYCQTGTRDYWGQGTTVTVSS
VL: DIQLTQSPSFLSASVGDRVTITCSAASSVSYIYWFQQKPGKAPKLLIYSTSTLPSGVPSRFSGSGSGTEYTLTISSLQPEDFATYYCHQRNSFPFTFGQGTKLEIKR
notes: also called VH: (D56G)
binding by ELISA relative to parental [1]: 1.49
binding by ELISA relative to parental [2]: 1.72
binding by ELISA relative to parental [3]: 1.64

B10: TPP-5353 (Fab, V domains shown)
VH: EVQLVQSGAEVKKPGASVKVSCKASGYTFTTYTIHWVRQAPGQGLEWIGYINPSSDYTRYNPKFKDRVTLTTDKSTSTAYMELRSLRSDDTAVYYCQTGTRDYWGQGTTVTVSS
VL: DIQLTQSPSFLSASVGDRVTITCSAASSVSYIYWFQQKPGKAPKLLIYSTSTLPSGVPSRFSGSGSGTEYTLTISSLQPEDFATYYCHQLNSFPFTFGQGTKLEIKR
notes: also called VL: (R90L)
binding by ELISA relative to parental [2]: 0.2
binding by ELISA relative to parental [3]: 0.04

B11: TPP-5324 (Fab, V domains shown)
VH: EVQLVQSGAEVKKPGASVKVSCKASGYTFTTYTIHWVRQAPGQGLEWIGYINPSSDSTRYNPKFKDRVTLTTDKSTSTAYMELRSLRSDDTAVYYCQTGTRDYWGQGTTVTVSS
VL: DIQLTQSPSFLSASVGDRVTITCSAASSVSYIYWFQQKPGKAPKLLIYSTSTLPSGVPSRFSGSGSGTEYTLTISSLQPEDFATYYCHQRNSFPFTFGQGTKLEIKR
notes: also called VH: (Y57S)
binding by ELISA relative to parental [1]: 0.53
binding by ELISA relative to parental [2]: 0.41
binding by ELISA relative to parental [3]: 0.34

B12: TPP-5319 (Fab, V domains shown)
VH: EVQLVQSGAEVKKPGASVKVSCKASGYTFTTYTMHWVRQAPGQGLEWIGYINPSSDYTRYNPKFKDRVTLTTDKSTSTAYMELRSLRSDDTAVYYCQTGTRDYWGQGTTVTVSS
VL: DIQLTQSPSFLSASVGDRVTITCSAASSVSYIYWFQQKPGKAPKLLIYSTSTLPSGVPSRFSGSGSGTEYTLTISSLQPEDFATYYCHQRNSFPFTFGQGTKLEIKR
notes: also called VH: (I34M)
binding by ELISA relative to parental [1]: 0.99
binding by ELISA relative to parental [2]: 0.85
binding by ELISA relative to parental [3]: 1.08

B13: TPP-5328 (Fab, V domains shown)
VH: EVQLVQSGAEVKKPGASVKVSCKASGYTFTTYTIHWVRQAPGQGLEWIGYINPSSDYTRYNPKFQDRVTLTTDKSTSTAYMELRSLRSDDTAVYYCQTGTRDYWGQGTTVTVSS
VL: DIQLTQSPSFLSASVGDRVTITCSAASSVSYIYWFQQKPGKAPKLLIYSTSTLPSGVPSRFSGSGSGTEYTLTISSLQPEDFATYYCHQRNSFPFTFGQGTKLEIKR
notes: also called VH: (K65Q)
binding by ELISA relative to parental [1]: 0.89
binding by ELISA relative to parental [2]: 0.61
binding by ELISA relative to parental [3]: 0.91

B14: TPP-5346 (Fab, V domains shown)
VH: EVQLVQSGAEVKKPGASVKVSCKASGYTFTTYTIHWVRQAPGQGLEWIGYINPSSDYTRYNPKFKDRVTLTTDKSTSTAYMELRSLRSDDTAVYYCQTGTRDYWGQGTTVTVSS
VL: DIQLTQSPSFLSASVGDRVTITCSAASSVSYIAWFQQKPGKAPKLLIYSTSTLPSGVPSRFSGSGSGTEYTLTISSLQPEDFATYYCHQRNSFPFTFGQGTKLEIKR
notes: also called VL: (Y33A)
binding by ELISA relative to parental [2]: 0.42
binding by ELISA relative to parental [3]: 0.03

B15: TPP-5322 (Fab, V domains shown)
VH: EVQLVQSGAEVKKPGASVKVSCKASGYTFTTYTIHWVRQAPGQGLEWIGYINPSGDYTRYNPKFKDRVTLTTDKSTSTAYMELRSLRSDDTAVYYCQTGTRDYWGQGTTVTVSS
VL: DIQLTQSPSFLSASVGDRVTITCSAASSVSYIYWFQQKPGKAPKLLIYSTSTLPSGVPSRFSGSGSGTEYTLTISSLQPEDFATYYCHQRNSFPFTFGQGTKLEIKR
notes: also called VH: (S55G)
binding by ELISA relative to parental [1]: 0.86
binding by ELISA relative to parental [2]: 0.82
binding by ELISA relative to parental [3]: 0.91

B16: TPP-5349 (Fab, V domains shown)
VH: EVQLVQSGAEVKKPGASVKVSCKASGYTFTTYTIHWVRQAPGQGLEWIGYINPSSDYTRYNPKFKDRVTLTTDKSTSTAYMELRSLRSDDTAVYYCQTGTRDYWGQGTTVTVSS
VL: DIQLTQSPSFLSASVGDRVTITCSAASSVSYIYWFQQKPGKAPKLLIYSASTLPSGVPSRFSGSGSGTEYTLTISSLQPEDFATYYCHQRNSFPFTFGQGTKLEIKR
notes: also called VL: (T50A)
binding by ELISA relative to parental [1]: 0.12
binding by ELISA relative to parental [2]: 0.27
